Test: soluble on expression in E. coli; label from the status in PepcDB or PDB records

Sequence	soluble on expression in E. coli
MPRGLILATPQLPPDGTPFSARYDDVYHSTEGGLAQAHHVFLGGNGLPGGWQGKRSFTIVETGFGQGLNFLATWAAWRDDPQRCGRLDFVSVEKHPFDRAGLALVHAQEGALASLAEALRQAWPVPVPGVHRLVFDAGRVTLTLMLGDAETLLPQLSCAADAFYLDGFSPAKNPDLWQPGVFKQLARIARGGATLATYTAAGAVRHGLREAGFEVRKAPGFGRKRDMTVAAFPTHWRTRRGPAEAPVWPERHAIVLGAGLAGCSVAERLAARGWRITLIDEHEAPAGGASAHRAAAMHPHVSIDDSVLSRLSRAGNLLARRHWEALDRAGFATGFHPTGVLQLAEHADDAAEQQRIVQALGFPADFIAWLDAARAADRVGAGVPQGGWWFAQAGWVAPPDICRAALAAAGEAVELRWRTRIESLLRHDAGWRACDAQGNVIAHAPVVVLANSLDAVRLAPLASAALKPVRGQLTDVPVAALEDGVPWPRAVVCGDGYLLPRERGAPTVRVGSSFQPGETDPDARTADHAANLRRLAGLQPAHAAALARVDPARLLGYVGVRCVSANRLPLIGAVADEAAIMAPGFRLRGPHAALPRVPGLYAALAYGSRGLTWSVLGAELLAAQIDGGPLPLESELAAALDPGRFLMRALRHGKHAA	soluble
MGSDKIHHHHHHMQIYLANPRGFCAGVDRAIAIVNEALLRFEPPIYVRHEVVHNKFVVSDLANRGAVFVEELHEVPDGSIVIFSAHGVSKAVEDEAERRDLTVFDATCPLVTKVHIEVAKFAQDGMDAVLIGHAGHPEVEGTMGRFNHRHGGRIHLVENESDVEALSVQDAERLAFVTQTTLSMDDTARVIDALREKFPHIQGPRKDDICYATQNRQDAVKHLASRCEVVLVVGSPNSSNSNRLRELAERMNCRAYLIDNATEMDINWFDGIQSVGVTAGASAPEVLIQEVLQQLQDWGGDLPSELSGIEENVTFSLPKALRIPMTQVGK	not soluble
MSLTREAYHRLTPLPHPGGRLFIKPGARGYRDPVHDLLQKTVEPFGERALDLNPGVGWGSLPLEGRMAVERLETSRAAFRCLTASGLQARLALPWEAAAGAYDLVVLALPAGRGTAYVQASLVAAARALRMGGRLYLAGDKNKGFERYFKEARALLGYGVVVRREGPYRVALLEKEKEAPPLPSLWRAFSARILGAEYTFHHLPGVFSAGKVDPASLLLLEALQERLGPEGVRGRQVLDLGAGYGALTLPLARMGAEVVGVEDDLASVLSLQKGLEANALKAQALHSDVDEALTEEARFDIIVTNPPFHVGGAVILDVAQAFVNVAAARLRPGGVFFLVSNPFLKYEPLLEEKFGAFQTLKVAEYKVLFAEKRGRHHHHHH	soluble
MASFIPNLPSWAKHVDLKFRSALVLSQLFTKSWGHPDVIKQMAKYRRDVMSKRLVMDYVKELNPKIDIVKKYSKNGVTSYEGFFASPHATLFPNHMPGNVGRAHFRAYLPQKPGPVCIHLAGTGDHSYFRRHYLLVDDMLKDGVGSILIQNPFYGDRKPPNQFRSSLENVTDLFVMGAALIAECNHLFNWSETLGYGPFAISGVSMGGFMAQLAGSNSQRPISIVPILAWTTASPSYTEGAISPAVNYSLLQKQLEDPHYVDKIRRIPNQNWLDKMREMTARNGDSEAKNMMRILMDDFTSLEFYPTPIDTSLCHVFLADQDQYVLRNQGTPTYQQLWPNVTVEMMEGYGHVTAYLSKHDLWRRRITELLRRQQQKTI	not soluble
ETMVGSFRDTTDKWLSQRLAADIYIYPTNNSAGRMSAWLQDQPEVESVWWRWEKDVPTEHGALQVVSTGPSEGELDSLTVKLGVPNYWYQLHQTKSLMVSESMALKLDIRPGDYIDLQAPLGEGWQVVGVYYDYGNPYNQVMMSHRN	not soluble
MPDRTTDDFGPFTEQIRGTIDGMGTAEFDALPVGAIQVDGSGVIHRYNRTESRLSGRIPERVIGRNFFTEVAPCTNIPAFSGRFMDGVTSGTLDARFDFVFDFQMAPVRVQIRMQNAGVPDRYWIFVRK	soluble
MNNKLTPVSPGEMLAEEFLIPLGMSNYRLAKEIGVSAQRIGEIVTGKRAITVDTDLRLCRFFGLSDGWWLRLQVDYDIEMARGALEETLAKIRPWANTQEHGTPA	not soluble
MSGIWGNNLKVSIFGESHGNAIGINIDGLPSGIELDLDKIDKEMKRRAPGKNSISTSRNESDIPEILSGYFNGRTTGTPLCAIIRNSDTRSKDYGELKNLMRPGHADFTGNVRYSGFNDYRGGGHFSGRITAPLVFCGAICKQILSQKGIEIGAHIKKIKNIEDMSFDYVNISKQQLSNLQTLELPLLDLSKEEAMKNTIIDAKNQGDSVGGIIECAVVGINVGLGNPFFDSVESTLSHLLFSVPAVKGVEFGLGFELADMYGSQSNDEMYYEGNQVKSKTNNNGGIIGGITTGMPIIFKVAIKPTPSISRQQNTVNIKDKKDDILYIKGRHDPCIVQRAIPVIEAVTAIGIFDLMKGR	not soluble
SAEFRVRVSTGEAFGAGTWDKVSVSIVGTRGESPPLPLDNLGKEFTAGAEEDFQVTLPEDVGRVLLLRVHKAPPVLPLLGPLAPDAWFCRWFQLTPPRGGHLLFPCYQWLEGAGTLVLQEGTAKVSWADHHPVLQQQRQEELQARQEMYQWKAYNPGWPHCLDEKTVEDLELNIKYSTAKNANFYLQAGSAFAEMKIKGLLDRKGLWRSLNEMKRIFNFRRTPAAEHAFEHWQEDAFFASQFLNGLNPVLIRRCHYLPKNFPVTDAMVASVLGPGTSLQAELEKGSLFLVDHGILSGIQTNVINGKPQFSAAPMTLLYQSPGCGPLLPLAIQLSQTPGPNSPIFLPTDDKWDWLLAKTWVRNAEFSFHEALTHLLHSHLLPEVFTLATLRQLPHCHPLFKLLIPHTRYTLHINTLARELLIVPGQVVDRSTGIGIEGFSELIQRNMKQLNYSLLCLPEDIRTRGVEDIPGYYYRDDGMQIWGAVEHFVSEIIGIYYPSDESVQDDRELQAWVREIFSKGFLNQESSGIPSSLETREALVQYVTMVIFTCSAKHAAVSAGQFDSCAWMPNLPPSMQLPPPTSKGLATCEGFIATLPPVNATCDVILALWLLSKEPGDQRPLGTYPDEHFTEEAPRRSIATFQSRLAQISRGIQERNRGLVLPYTYLDPPLIENSVSI	soluble
MKFTVGIAMNPLDQLPALARTAEECGFSSIALPDSLFFMEKQSADYPYTPDGSRMWNEETPWVDPLIAAAAMGAVTSKIEFYTQVLKLGSRNPVLLARQVGSVANLIGNRFGFGVGIGWAPEEFEWCGVPYKKRGARVDEMIDVIKLILGGGMVEYHGEFFDFDRLQMSPAPTKPVPFYVGGHTDVALRRAARVGDGWTSAMIKFDDLVQVIARLRELREEYGRADLPYEIQTVCIDRFGKDGYAELADAGVTDTIVVPWVFDGIGFDGPLEAKQDSLRKFADQYIG	not soluble
MHQQIIKFWFEELTPQNWFENNPELDKHIASRFASVLEQAARCELFNWRDSAQGRLAEIIVLDQFSRNVYRNTPKAFAQDPLALALAQEAIRLGHDQELAPEQLSFLYMPFMHSESRLIHVEAEKLFRASGLENNYDFELKHKAIIDQFGRYPHRNAILGRESTPEELAFLQQPGS	soluble
MKMKSLFVAMITFFSAAPFAHWQPIGNAEYTWGPFHVYTIGLFSETGTYQENERPLMLSFKYEKPIEGKNFAITLIKEIETLKLNDGDTQSWLKEMQATFPDFSPNDILNYIALPDRGYFVLNDTVLEHDFDAKFNQAFIGIWLAPNSTFVKLQPQLLGKTKSNHEATEFYLKPEIESFDEQDSTPELPPNYLLDSQKKSQG	not soluble
MGSDKIHHHHHHMQWETVIGLEIHAQLSTRSKIFSGASVAYGAEPNSQACAVDIALPGVLPVLNRQAIEYAIRFGLAIDATINSPSVFARKNYFYPDLPKGYQISQLEHPIVEGGHVAIQTGDQEKTIRLTRAHLEEDAGKSTHEEFHGMTGIDLNRAGTGLLEIVSEPDMRSSAEAVAYAKVLHSLVRWIGICDGNMQEGSFRCDANVSVRPAGSEALGTRCEIKNLNSFRFLERAIDYEVARQIDILESGGSITQETRLYDADRDETRTMRSKEDAHDYRYFPDPDLLPVIIPQEWIDQIREKLPELPKDKRNRYIQDFGLQTYDANILTAARELADYFEQMVSVLPGQSKLCANWIMGEVSARLNKEGLEIARSPISPEQLAGLLLRITDGTISGKIAKDVFDSMWQSNGDSADTIIDAKNLRQISDDSEIEKWVDDVLAANPQQVADYRAGKEKAFNSLVGQVMKTSKGKANPAQVNSVLKKRLTE	not soluble
MSLELPFSNQSIIPAAHNQKDMEKILELDLTYMVMLETHVAQLKALVKYAQAGGKKVLLHADLVNGLKNDDYAIDFLCTEICPDGIISTRGNAIMKAKQHKMLAIQRLFMIDSSAYNKGVALIQKVQPDCIELLPGIIPEQVQKMTQKLHIPVIAGGLIETSEQVNQVIASGAIAVTTSNKHLWEGHHHHHH	soluble
